Assay results taken from article PMC11603075.

Target: KDM4E (human)

KM of KDM4E catalysed demethylation, formaldehyde dehydrogenase (FDH) coupled assay | Substance
5.18 µM | H2a(1–20)R3me2a (from UniProt P0C0S8 2-21) (peptide)
20.7 µM | H3(1–21)R2me2a (from UniProt P68431 2-22) (peptide)
